Numbered stars: 1 amine (or outer) side, 2 acyl side, 3 side chain; on linkers, the order of the positions; unused ones are H or OH. Bridge positions count the residues as written; N and C are the ends. Square brackets hold non-standard residues; d marks the D form. Peptide text beside a SMILES is read from it. * marks the point of attachment. X1 = COc1cc2cc(c1Cl)N(C)C(=O)C[C@H](OC(=O)[C@H](C)N(C)C(=O)CCSSC(C)CCC(=O)*)[C@]1(C)O[C@H]1[C@H](C)[C@@H]1C[C@@](O)(NC(=O)O1)[C@H](OC)/C=C/C=C(\C)C2; 1Nal = N[C@@H](Cc1cccc2ccccc12)C(=O)O; TBMB = c1c(C[*:1])cc(C[*:3])cc1C[*:2]; Tle = CC(C)(C)[C@H](N)C(=O)O; βAla = NCCC(=O)O; Sar = CNCC(=O)O
System: advanced solid tumors
Assay: Phase I/IIa trial of BT1718 in patients with advanced solid tumors: safety and efficacy
Format: in vivo
Source text: This is a multi-center, FIH, Phase I/IIa, open label dose escalation trial with an expansion phase, in patients with advanced solid tumors.
A DLT is defined as a probably or highly probably drug-related AE occurring during Cycle 1 (i.e. the first 28 days) which fulfils one or more of the following criteria, despite appropriate supportive clinical management (however, all clinically significant toxicities will be considered in dose review decisions and the determination of the Phase II dose): • Neutropenia Grade 4 (absolute neutrophil count [ANC]<0.5×10^9/L) for ≥seven days *see note; • Febrile neutropenia with Grade 3 or 4 neutropenia ANC <1.0×10^9/L and a single temperature of […] or a sustained temperature ≥38° C. for more than one hour); • Clinically significant infection (documented clinically or microbiologically) with Grade 3 or 4 neutropenia (ANC <1.0×10^9/L); • Thrombocytopenia Grade 4: a) for ≥five days *see note, or b) associated with active bleeding, or c) requiring platelet transfusion. • Grade 3 or 4 toxicity to organs other than the bone marrow, EXCLUDING: Grade 3 nausea; • Grade 3 or 4 vomiting in patients who have not received optimal treatment with anti-emetics; or • Grade 3 or 4 diarrhoea in patients who have not received optimal treatment with anti-diarrhoeals. • Transient, asymptomatic Grade 3 biochemical abnormalities if agreed by the Sponsor and the Study Team, including the Chief Investigator (CI). • Fatal event; • Any other related toxicity which leads to discontinuation of treatment in Cycle 1, or to a delay in dosing of >7 days (excluding where the delay is >7 days due to scheduling rather than a clinical decision); • Any other related toxicity that is greater than at baseline and is judged to be a DLT by the Sponsor, including the CI and Principal Investigators (PIs).
Definitions of disease status is in accordance with RECIST (Response Evaluation Criteria in Solid Tumors) 1.1, based on documentation of target and non-target lesions as specified in the BT1718 study protocol. All clinical measurements to assess response must be performed within one week of the first dose of BT1718.
An open label, first in human phase Ulla study of once-weekly (QW) and twice-weekly (BIW) dosing schedules in patients with advanced solid tumours was undertaken.
4-week cycle: 1 hour intravenous (IV) infusions for 3 weeks, followed by a 1 week break.

SMILES: COc1cc2cc(c1Cl)N(C)C(=O)C[C@H](OC(=O)[C@H](C)N(C)C(=O)CCSSC(C)CCC(=O)NCCC(=O)N(C)CC(=O)N(C)CC(=O)N(C)CC(=O)N(C)CC(=O)N(C)CC(=O)N(C)CC(=O)N(C)CC(=O)N(C)CC(=O)N(C)CC(=O)N(C)CC(=O)N[C@@H](C)C(=O)N[C@H]1CSCc3cc4cc(c3)CSC[C@H](NC(=O)[C@@H](C)NC(=O)[C@H](Cc3cccc5ccccc35)NC(=O)[C@H](CCC(=O)O)NC(=O)[C@H](CC(N)=O)NC(=O)[C@@H](C)NC1=O)C(=O)N[C@@H](CCC(=O)O)C(=O)N[C@@H](CC(=O)O)C(=O)N[C@@H](Cc1ccccc1)C(=O)N[C@@H](Cc1ccc(O)cc1)C(=O)N[C@@H](CC(=O)O)C(=O)N[C@@H](C(C)(C)C)C(=O)N[C@H](C(N)=O)CSC4)[C@]1(C)O[C@H]1[C@H](C)[C@@H]1C[C@@](O)(NC(=O)O1)[C@H](OC)/C=C/C=C(\C)C2 (some centres unmarked) [BT1718] ({X1-βAla}-[Sar][Sar][Sar][Sar][Sar][Sar][Sar][Sar][Sar][Sar]AC[dA]NE[1Nal][dA]CEDFYD[Tle]C-NH2; linker 12-18-25 via TBMB (inferred))
- DLTs (9.6 mg/m^2 BIW (cohort 5)): 2×DLTs (GGT, fatigue) and increased GGT (grade 4) and fatigue (grade 3)
- Drug-related Alanine aminotransferase increased, number of patients, n = 28 (frequency) (human, in vivo): 8 (28.6%)
- Drug-related Anaemia, number of patients, n = 28 (frequency) (human, in vivo): 7 (25.0%)
- Drug-related Aspartate aminotransferase increased, number of patients, n = 28 (frequency) (human, in vivo): 9 (32.1%)
- Drug-related Blood alkaline phosphatase increased, number of patients, n = 28 (frequency) (human, in vivo): 5 (17.9%)
- Drug-related Decreased appetite, number of patients, n = 28 (frequency) (human, in vivo): 9 (32.1%)
- Drug-related Diarrhea, number of patients, n = 28 (frequency) (human, in vivo): 10 (35.7%)
- Drug-related Fatigue, number of patients, n = 28 (frequency) (human, in vivo): 9 (32.1%)
- Drug-related Gamma-glutamyltransferase increased, number of patients, n = 28 (frequency) (human, in vivo): 5 (17.9%)
- Drug-related Lethargy, number of patients, n = 28 (frequency) (human, in vivo): 6 (21.4%)
- Drug-related Nausea, number of patients, n = 28 (frequency) (human, in vivo): 12 (42.9%)
- Drug-related Neuropathy peripheral, number of patients, n = 28 (frequency) (human, in vivo): 9 (32.1%)
- Drug-related Vomiting, number of patients, n = 28 (frequency) (human, in vivo): 9 (32.1%)
- Grade 1-2 related peripheral neuropathy (human, in vivo): occurred more commonly with increasing dose
- RP2D for twice weekly dosing (human, in vivo): 7.2 mg/m^2
- patients with related grade 1-3 gastrointestinal disorders (including nausea, diarrhea and vomiting): 18/28
- tolerability (once weekly dosing, dose levels tested): tolerable

Reference: patent US20200129630A1, “METHODS FOR TREATING CANCER” (BicycleRD Limited, priority 2018, published 2020)
